Among the data in US20150125516, “TRANSFERRIN RECEPTOR APTAMERS AND APTAMER-TARGETED DELIVERY” (ALBERT EINSTEIN COLLEGE OF MEDICINE OF YESHIVA UNIVERSITY, published 2015) are Kd values, retold here.

Data set [1] addresses transferrin receptor (TfR, CD71), native on human cells (Homo sapiens, UniProt P02786 P02786:1-760). The data set is described as follows: flow; apparent, Jurkat cells, RPMI 10% FBS, tRNA and ssDNA, 37 C 1 h; no staining of ATP-arrested cells. The note with it: chain copies: 2 inferred; label: 32P (filter), AF488 or Atto647N (cells); stem with 12-nt asymmetric bulge, C-rich bulge, GNRA tetraloop.
Procedure: Following a 1 hour incubation at 37° C., the cells were washed twice with 1 mL FACS buffer and then resuspended in 500 μL FACS buffer containing 7AAD to exclude dead cells in the analysis. The apparent binding constant was determined from a fit of the mean fluorescence versus the aptamer concentration using the Eq. 1 above.

The target of data set [2] is transferrin receptor (TfR, CD71), recombinant from pAcGP67A-TfR (Homo sapiens, UniProt P02786 P02786:121-760). Nature of the data set: filter; DPBS with Mg2+ and Ca2+, room temperature, 30 min. The note with it: tags: His-tag; expressed in Sf9 insect cells, plasmid pAcGP67A-TfR (Addgene); chain copies: 2 inferred; label: 32P (filter), AF488 or Atto647N (cells); stem with 12-nt asymmetric bulge, C-rich bulge, GNRA tetraloop.
Sequence of transferrin receptor (TfR, CD71), recombinant from pAcGP67A-TfR (P02786 121-760, one chain of several): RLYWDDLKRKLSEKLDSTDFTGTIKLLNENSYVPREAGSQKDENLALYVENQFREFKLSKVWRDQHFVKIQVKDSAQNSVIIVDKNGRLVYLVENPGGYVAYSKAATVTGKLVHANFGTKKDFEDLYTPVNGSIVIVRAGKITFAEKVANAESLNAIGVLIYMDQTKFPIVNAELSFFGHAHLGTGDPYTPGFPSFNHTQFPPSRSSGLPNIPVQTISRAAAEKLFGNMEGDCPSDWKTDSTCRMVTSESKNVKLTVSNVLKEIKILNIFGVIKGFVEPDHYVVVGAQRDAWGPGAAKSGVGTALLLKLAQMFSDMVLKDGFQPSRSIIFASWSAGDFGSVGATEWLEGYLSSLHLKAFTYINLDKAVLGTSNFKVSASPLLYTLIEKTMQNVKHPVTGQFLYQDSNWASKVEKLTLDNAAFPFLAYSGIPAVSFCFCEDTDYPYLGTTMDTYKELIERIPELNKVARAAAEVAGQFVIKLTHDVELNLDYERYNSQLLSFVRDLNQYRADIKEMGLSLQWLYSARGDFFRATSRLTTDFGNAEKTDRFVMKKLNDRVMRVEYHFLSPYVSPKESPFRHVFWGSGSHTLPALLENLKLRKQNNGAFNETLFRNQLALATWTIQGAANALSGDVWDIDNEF

Sequence of transferrin receptor (TfR, CD71), native on human cells (P02786 whole entry, one chain of several): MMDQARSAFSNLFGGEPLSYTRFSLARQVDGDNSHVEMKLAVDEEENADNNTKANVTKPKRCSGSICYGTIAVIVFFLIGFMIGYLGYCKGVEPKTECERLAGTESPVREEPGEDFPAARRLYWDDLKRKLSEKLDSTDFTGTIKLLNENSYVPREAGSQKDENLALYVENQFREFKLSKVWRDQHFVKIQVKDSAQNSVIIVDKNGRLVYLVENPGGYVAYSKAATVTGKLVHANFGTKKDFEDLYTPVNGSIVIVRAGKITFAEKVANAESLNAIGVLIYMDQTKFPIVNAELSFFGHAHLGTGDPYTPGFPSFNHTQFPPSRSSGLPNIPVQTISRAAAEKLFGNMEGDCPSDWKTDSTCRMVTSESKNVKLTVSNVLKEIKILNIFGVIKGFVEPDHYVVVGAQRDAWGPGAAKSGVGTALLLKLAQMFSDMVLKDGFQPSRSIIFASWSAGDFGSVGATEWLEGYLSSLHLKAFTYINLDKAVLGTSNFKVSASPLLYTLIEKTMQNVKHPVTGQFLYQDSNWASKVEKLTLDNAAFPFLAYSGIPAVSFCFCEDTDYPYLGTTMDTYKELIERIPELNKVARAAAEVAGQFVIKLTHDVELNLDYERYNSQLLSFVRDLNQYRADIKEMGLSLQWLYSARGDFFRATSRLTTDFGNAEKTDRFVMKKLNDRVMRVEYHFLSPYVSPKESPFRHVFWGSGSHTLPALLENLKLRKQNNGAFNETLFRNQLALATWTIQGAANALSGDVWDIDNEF

Turning to GGGGGAUCAAUCCAAGGGACCCGGAAACGCUCCCUUACACCCC (ssRNA, 2'-F pyrimidines; 3' idT; 5' thiol C6) [c2.min], the Kd was 104 nM in data set [1] and 102 nM in data set [2].
